From the supplement of paper PMC9170038

System: MS2 coat protein
Experiment: apparent KD of MS2 coat protein; designed switch direction (-1 OFF switch, 1 ON switch): 1; higher = weaker reporter binding
Summary of the method: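 Designed RNA switches with common flanks were made on Illumina chips by stalled E. coli RNA polymerase. Titration with SNAP-549-labelled MS2 coat protein doubled from 0.7 or 1.5 nM up to 3 µM. Apparent KD is each design's median over clusters after curve-fitting normalised fluorescence.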

[1] = Eterna round: R95, input ligand: FMN 200 uM
[2] = Eterna round: R95, input ligand: microRNA oligo, concentration not stated
[3] = Eterna round: R95, input ligand: none
[4] = input ligand: microRNA oligo, concentration not stated

Sequence | apparent KD of MS2 coat protein [1] [nM] | apparent KD of MS2 coat protein [2] [nM] | apparent KD of MS2 coat protein [3] [nM] | apparent KD of MS2 coat protein (input ligand: FMN 200 uM) [nM] | apparent KD of MS2 coat protein [4] [nM] | apparent KD of MS2 coat protein (input ligand: none) [nM]
GCAGAACAUGAGGAUCACCCAUGUCUCAAAUAUUGAGGAUAUGGACACGGUAUAUCCGAACCAGAAGGCAAACUGC [SS1 Teenbexe 19] (puzzle: Same State 1) | 55.8 | 74.5 | 64 | – | – | –
GCAGAACAUGAGGAUCACCCAUGUCUCUAAUAUUGAGGAUAUGGGCACGGUAUAUCCGAACCAGAAGGCGAACUGC [SS1 Teenbexe 16] (puzzle: Same State 1) | 420 | 322 | 431 | – | – | –
GCCAACGCAUGAGGAUAUGGCACCUUAUUGGUGCCAGAAGGUAUGUGUAUUCACAUGAGGAUCACCCAUGUAUUAUAGUUGGCA [Fiskers NG1ss - 17] (Eterna round: R96, puzzle: Same State NG 1) | – | – | – | 53.7 | 146 | 183
GCCAUCGCAUGAGGAUAUGGCACCGUUUCGGUGCCAGAAGGCAUGUCGAAUGACAUGAGGAUCACCCAUGUAGUAUAGAUGGCA [JL Fiskers NG1ss - 33 mod 10] (Eterna round: R96, puzzle: Same State NG 1) | – | – | – | 59 | 377 | 851
GCCAUCGUAUGAGGAUAUGGCACCGAAACGGUGCCAGAAGGCAUGUCAAUUGACAUGAGGAUCACCCAUGUAUUAUCGAUGGCA [Mat - Same State NG 1 - JL mod - D89] (Eterna round: R96, puzzle: Same State NG 1) | – | – | – | – | 454 | –
GCCAUCGUGUGAGGAUAUGGCACCGAAACGGUGCCAGAAGGCAUGUCAAUUGACAUGAGGAUCACCCAUGUAUUAGCGAUGGCA [Mat - Same State NG 1 - JL mod - D86] (Eterna round: R96, puzzle: Same State NG 1) | – | – | – | 181 | 994 | 1360
GCCGCGUUUCGCGCCUACAUGAGGAUCACCCAUGUUUGUAGGCAGGAUAUCGUCCGCUCUGCGGGCGAGAAGGGCUGUUGUGGU [salish99_SSNG3_R04_024] (Eterna round: R96, puzzle: Same State NG 3) | – | – | – | 65.6 | 58.1 | 86.7
GCCGCGUUUCGCGCCUACAUGAGGAUCACCCAUGUUUGUAGGCAGGAUAUCGUUUGCUUUGCAAACGAGAAGGGCUGUUGUGGC [salish99_SSNG3_R04_012] (Eterna round: R96, puzzle: Same State NG 3) | – | – | – | 29.9 | 47.2 | 50.2
GCCGGCUAAUGAGGAUAUGGCACCUUAUUGGUGCCAGAAGGCAUGUCAAUUGACAUGAGGAUCACCCAUGUAUUAUAGUUGGCG [salish99_SSNG1_r04_603] (Eterna round: R96, puzzle: Same State NG 1) | – | – | – | – | 211 | –
GCCGGCUGGUGAGGAUAUGGCGCCUUGUUGGUGCCAGAAGGCAUGUCUUUUGACAUGAGGAUCACCCAUGUGUUGUCGUUGGCG [salish99_SSNG1_r04_613] (Eterna round: R96, puzzle: Same State NG 1) | – | – | – | 221 | 72.3 | 47.8
GCCGUAAACAUGAGGAUCACCCAUGUAAACGCGAGAGUGGAUGAGGAUAUCGAUGGGUUUCCCGUCGAGAAGGCGUGGGUCGGC [JL SSNG3 3.99] (Eterna round: R96, puzzle: Same State NG 3) | – | – | – | 36.2 | 31.8 | 46.1
GCGAGCGUACUUGCUACAUGAGGAUCACCCAUGUCUGUUGGACAGGAUAUGGUACCGUUUCGGUACCAGAAGGGUUCAUCAUGU [JL SSNG3 3.74] (Eterna round: R96, puzzle: Same State NG 3) | – | – | – | 439 | 74 | 262
GCGAGCGUACUUGCUACAUGAGGAUCACCCAUGUUCAUUGGACAGGAUAUGGUACCGUUUCGGUACCAGAAGGGUUCAUCAUGU [JL SSNG3 3.73] (Eterna round: R96, puzzle: Same State NG 3) | – | – | – | 1190 | 26.6 | 585
GCGAGCGUACUUGCUACAUGAGGAUCACCCAUGUUCGUUGGACAGGAUAUGGUACCGUUUCGGUACCAGAAGGGUUCAUCAUGU [JL SSNG3 3.75] (Eterna round: R96, puzzle: Same State NG 3) | – | – | – | 356 | 188 | 278
GCGGUCUGACAUGAGGAUCACCCAUGUGGAAUAAAUACGGGUUAGGAUAUCUUGAGGAUCACCCAAGAGAAGGGAUGGACCGCU (Eterna round: R96, puzzle: Same State NG 3) | – | – | – | 32.1 | 22.8 | 38.4
GCUACCAAUGAAGCCAACAUGAGGAUCACCCAUGUAUGUUGGCAGGAUAUCGAUUGCAAAGCGAUCGAGAAGGGCUAAGGUAGC [Mat - Same State NG 3 - JL Mod - D87] (Eterna round: R96, puzzle: Same State NG 3) | – | – | – | 107 | 120 | 177

Sequence | apparent KD of MS2 coat protein [1] [nM] | apparent KD of MS2 coat protein [2] [nM] | apparent KD of MS2 coat protein [3] [nM] | apparent KD of MS2 coat protein (input ligand: FMN 200 uM) [nM] | apparent KD of MS2 coat protein [4] [nM] | apparent KD of MS2 coat protein (input ligand: none) [nM]
GCUAGAAUAAAAGCCAACAUGAGGAUCACCCAUGUAUGUUGGCAGGAUAUCGUAUGCAAAGCAUACGAGAAGGGCCAUACUAGC [Mat - Same State NG 3 - JL Mod - D24] (Eterna round: R96, puzzle: Same State NG 3) | – | – | – | 49.8 | 96.7 | 121
GCUAGUAUUAUUGUCAACAUGAGGAUCACCCAUGUAUGUUGGCAGGAUAUCGUUUGCUUUGCAAACGAGAAGGGCUAAACUAGC [JL SSNG3 1.04] (Eterna round: R96, puzzle: Same State NG 3) | – | – | – | 61.2 | 145 | 231
GCUCGACGUAUGGCCUACAUGAGGAUCACCCAUGUGACUGGGCAGGAUAUCUAAAUGCAGAAUGUAGAGAAGGGCCCGUCGAGC [SameState NG3 #49] (Eterna round: R96, puzzle: Same State NG 3) | – | – | – | 163 | 99.6 | 188
GCUCGAUGAGAGUCCUACAUGAGGAUCACCCAUGUAUGUGGGCAGGAUAUCUACAUGCAGAAUGUAGAGAAGGGCCCGUCGAGC [SameState NG3 #57] (Eterna round: R96, puzzle: Same State NG 3) | – | – | – | 35.2 | 106 | 187
GCUCGUAUGAUGACCGACAUGAGGAUCACCCAUGUAUGUUGGUAGGAUAUCUAUAUUAAGGAUAUAGAGAAGGGCCGAACGAGC [SameState NG3 #15] (Eterna round: R96, puzzle: Same State NG 3) | – | – | – | 26.5 | 33.6 | 40.1
GCUGCAAGGGCAGGAUAUGGGUUCAGAGCGGAAGUGCGCUUUGAUACAUGAGGAUCACCCAUGUCCCAGAAGGGCCCAAACGGC [Beanti] (Eterna round: R96, puzzle: Same State NG 2) | – | – | – | 17.3 | 99.3 | 123
GCUUCACAUGAGGAUCACCCAUGUCUUCGGAGUCGAGGAUAUGGUCACUGUAAACAGUGGCCAGAAGGCGAGGAGC [SS1 - Son of Teenbexe v7] (puzzle: Same State 1) | – | 46.4 | – | – | – | –
GGAAUAUGAUGUUACAUGAGGAUCACCCAUGUAGUGACAACUAAGGAUAUCUGAAAAGAAGGAGAGGAGAAGGUAGGAUCAUAA [AK SSNG3-V2-14.1] (Eterna round: R96, puzzle: Same State NG 3) | – | – | – | 25.7 | 23.1 | 36
GGAAUAUUUACAGGAUAUGAGUUGUAAAGUCGAUCAGAAGGGUAGGUGUCUUGCACGGUGUGUUACAUGAGGAUCACCCAUGUU [SameState NG1 #21] (Eterna round: R96, puzzle: Same State NG 1) | – | – | – | 156 | 116 | 128
GGACGUCAUCUCACUGAUUAAACAUGAGGAUCACCCAUGUCACAGGAUAUGAGUCCGAUUAGGACUCAGAAGGGUGUGACGUCC [Fiskers NG3ss - 45] (Eterna round: R96, puzzle: Same State NG 3) | – | – | – | 20.7 | 14.6 | 22.9
GGAGAACAUGAGGAUCACCCAUGUGAGCGGUAGCUAGGAUAUGCGGGAAGGAAGAGAGAAGCAGAAGGAGUCGGUA [JR_SS1_Sub033] (puzzle: Same State 1) | – | 34.2 | – | – | – | –
GGAGAACAUGAGGAUCACCCAUGUGGAUGAGCGCUAGGAUAUGCGGGAGGGUGAAGAGAAGCAGAAGGAGUAGAUA [JR_SS1_Sub034] (puzzle: Same State 1) | 63.9 | 99.6 | 180 | – | – | –
GGAGCCAAGGCAGGAUAUUCAUAUUAAUAACACAUGAGGAUCACCCAUGUGGCCAGAAGGCCAAGGGAGAAGGGCCAUGGCUCG [Xeonanis - 13 mod11] (Eterna round: R96, puzzle: Same State NG 2) | – | – | – | 22.1 | 65.4 | 159
GGAGCCGAUACUGAGGAUAUUCAUAUUAAAACAUGAGGAUCACCCAUGUAGGCCAGAAGGCCUUGGGAGAAGGCAGAUCGGCUCC [Biseusra - 4] (Eterna round: R96, puzzle: Same State 2) | – | – | – | 21 | 207 | 358
GGAGCCGAUACUGAGGAUAUUCAUAUUAAAACAUGAGGAUCACCCAUGUAGGCCAGAAGGCCUUGGGAGAAGGCAGAUCGGCUCC [Biseusra - 4] (puzzle: Same State 2) | 19.5 | 301 | 450 | – | – | –
